We go through one molecule from publication PMC2034485.

The target of the series is Rad18 S471A;Rad6 (hHR6B) (Homo sapiens;Homo sapiens, UniProt Q9NS91;P63146 1-495;1-152, S471A|). Briefly: EMSA, competition. A general note: A gel shift assay detects complexes by their altered migration in electrophoresis.
Chain of Rad18 S471A;Rad6 (hHR6B) (Q9NS91 whole entry S471A, chain 1 of 2): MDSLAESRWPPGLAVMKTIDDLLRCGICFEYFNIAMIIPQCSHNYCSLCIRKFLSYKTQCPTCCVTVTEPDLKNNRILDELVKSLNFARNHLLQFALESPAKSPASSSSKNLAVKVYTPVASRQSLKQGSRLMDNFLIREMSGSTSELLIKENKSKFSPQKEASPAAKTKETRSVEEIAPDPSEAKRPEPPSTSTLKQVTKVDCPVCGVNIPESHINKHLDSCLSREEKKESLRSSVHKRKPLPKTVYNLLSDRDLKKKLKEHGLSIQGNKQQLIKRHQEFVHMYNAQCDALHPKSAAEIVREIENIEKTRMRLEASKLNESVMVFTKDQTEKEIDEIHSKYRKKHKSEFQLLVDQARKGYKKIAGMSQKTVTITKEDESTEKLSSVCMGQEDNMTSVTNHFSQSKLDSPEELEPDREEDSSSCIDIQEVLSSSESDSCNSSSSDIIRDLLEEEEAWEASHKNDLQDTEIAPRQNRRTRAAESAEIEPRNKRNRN
Chain of Rad18 S471A;Rad6 (hHR6B) (P63146 whole entry, chain 2 of 2): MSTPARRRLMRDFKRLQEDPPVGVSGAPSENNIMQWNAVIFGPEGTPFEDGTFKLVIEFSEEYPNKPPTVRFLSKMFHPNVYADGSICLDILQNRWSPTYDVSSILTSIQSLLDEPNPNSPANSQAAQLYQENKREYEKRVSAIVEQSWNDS

B1: 35T (ssDNA)
DNA: TTTTTTTTTTTTTTTTTTTTTTTTTTTTTTTTTTT
Regarding B1, the binding result is recorded as “binds”.
